From publication doi:10.1101/2024.11.26.625467

Target: CA09 N1 sNAp (stabilized NA protein, neuraminidase head of H1N1 A/California/07/2009) (influenza A virus H1N1 A/California/07/2009)
Assay: cryo-EM structure

With “CA09 N1 sNAp (stabilized NA protein, neuraminidase head of H1N1 A/California/07/2009) (domain or fragment)” the stoichiometry N was 4.
